Assays:
[1] = target: D2 receptor peptide (D2R peptide) (human); experiment: crystal structure; NCS-1 (1 mM) with 2-fold excess of D2R peptide; 150 mM Tris-HCl pH 8.0, 8% ethylene glycol, 20% PEG 5000, 20 °C; 2.19 Å
[2] = target: D2 receptor peptide (D2R peptide) (human); experiment: ITC; 1 mM Ca2+/NCS-1 in the syringe titrated into 100 uM D2R peptide in the cell, 25 °C, 50 mM Tris-HCl, 50 mM NaCl, 5 mM CaCl2, pH 7.5; fitted to a sequential model and to a two-site nonsequential model with stoichiometry fixed at 1:2 NCS-1:peptide
[3] = target: GRK1 peptide (N terminus of G-protein-coupled receptor kinase 1, residues 1-25); experiment: crystal structure; NCS-1 (1 mM) with 2-fold excess of GRK1 peptide; 0.12 M alcohols, 0.1 M HEPES/MOPS pH 7.5, 30% PEGMME 550 and PEG 20000, 20 °C; 2.30 Å
GRK1 peptide (N terminus of G-protein-coupled receptor kinase 1, residues 1-25), sequence (Q15835 1-25): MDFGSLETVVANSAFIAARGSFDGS

Rattus norvegicus neuronal calcium sensor-1 (NCS-1), full-length, Ca2+-bound, sequence (P62168 whole entry): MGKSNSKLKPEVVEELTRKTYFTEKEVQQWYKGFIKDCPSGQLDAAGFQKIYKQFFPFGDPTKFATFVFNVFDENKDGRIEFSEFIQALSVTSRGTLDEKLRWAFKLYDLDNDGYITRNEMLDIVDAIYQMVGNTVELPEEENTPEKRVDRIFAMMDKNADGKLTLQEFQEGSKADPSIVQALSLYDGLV

stoichiometry N [1]: 2 | Kd, sequential binding model, first value [2]: 43 µM | Kd, sequential binding model, second value [2]: 58 µM | dH [2]: -2.06 kcal/mol | stoichiometry N [3]: 1
Substance: Rattus norvegicus neuronal calcium sensor-1 (NCS-1), full-length, Ca2+-bound (from UniProt P62168 1-190) (natural protein)

Reference: paper PMC4513130, “Neuronal Calcium Sensor-1 Binds the D2 Dopamine Receptor and G-protein-coupled Receptor Kinase 1 (GRK1) Peptides Using Different Modes of Interactions” (The Journal of Biological Chemistry, 2015)
